Here are results for 1 protein from article PMC3438448, “Lis1 Acts as a “Clutch” between the ATPase and Microtubule-Binding Domains of the Dynein Motor” (Cell, 2012).

This series deals with the molecule itself. The series is described as follows: cross-linking; 0.5 μM protein ± 0.05% glutaraldehyde, 5 min, ambient temperature; 30 mM HEPES pH 7.2, 50 mM potassium acetate; SDS-PAGE; control pretreated with 4% LDS.

B1: Lis1 (S. cerevisiae Pac1) (natural protein, UniProt P39946 1-494, looked up)
chain: MTNWQQQLPLTDTQKNELDKSVLRYLNWNYKQTVRHEHAQDYESVRHAIVTLSGFLLQESVDRQEFISNNDTSNESMVDIDELLLPKKWNSIVRLQKKIIELEQNTETLVSQIKDLNTQVSELAQFKPTTSNGTSAHNVLKWIPRNLPSCLINVESSVTSVKLHPNLPIVFVATDHGKLYAFDLFNYTIPLASLQSHTKAITSMDVLFTNYTNSSKKNYLVIVTASKDLQIHVFKWVSEECKFQQIRSLLGHEHIVSAVKIWQKNNDVHIASCSRDQTVKIWDFHNGWSLKTFQPHSQWVRSIDVLGDYIISGSHDTTLRLTHWPSGNGLSVGTGHEFPIEKVKFIHFIEDSPEIRFRTPSTDRYKNWGMQYCVSASRDRTIKIWEIPLPTLMAHRAPIPNPTDSNFRCVLTLKGHLSWVRDISIRGQYLFSCADDKSVRCWDLNTGQCLHVWEKLHTGFVNCLDLDVDFDSNVTPRQMMVTGGLDCKSNVFMR
notes: Lis1 ortholog Pac1 (PAC1), S. cerevisiae; also called dimeric Lis1; intact Lis1; source: S. cerevisiae, expressed from the genomic locus, purified (Ni-NTA, IgG sepharose, TEV cleavage)
For B1, the “stoichiometry N” value worked out at 2.
